The experiment concerns the target T1, Tetanus toxoid (UniProt P04958 2-1315).
T1 construct: also called TT
The experiment is described as follows: ELISA screen of hybridoma supernatants. Background: An ELISA detects its analyte on a solid surface through an enzyme-linked reagent.

The results in this text go back to patent US20050014931A1 (ABGENIX, published 2005).

T1 sequence (P04958 2-457 limits assumed, chain 1 of 2): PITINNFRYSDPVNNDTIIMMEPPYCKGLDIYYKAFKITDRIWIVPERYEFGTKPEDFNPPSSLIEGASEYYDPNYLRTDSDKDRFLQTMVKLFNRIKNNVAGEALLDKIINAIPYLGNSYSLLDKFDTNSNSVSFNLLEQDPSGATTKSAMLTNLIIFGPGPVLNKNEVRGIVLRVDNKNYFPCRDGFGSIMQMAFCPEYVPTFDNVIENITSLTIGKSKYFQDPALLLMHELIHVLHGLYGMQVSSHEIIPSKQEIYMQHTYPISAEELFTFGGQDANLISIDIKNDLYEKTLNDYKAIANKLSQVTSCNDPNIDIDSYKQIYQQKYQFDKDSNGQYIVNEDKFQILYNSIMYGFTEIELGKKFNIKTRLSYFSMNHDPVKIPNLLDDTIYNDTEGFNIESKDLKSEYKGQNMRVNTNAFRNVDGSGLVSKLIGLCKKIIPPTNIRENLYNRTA
T1 sequence (P04958 458-1315 limits assumed, chain 2 of 2): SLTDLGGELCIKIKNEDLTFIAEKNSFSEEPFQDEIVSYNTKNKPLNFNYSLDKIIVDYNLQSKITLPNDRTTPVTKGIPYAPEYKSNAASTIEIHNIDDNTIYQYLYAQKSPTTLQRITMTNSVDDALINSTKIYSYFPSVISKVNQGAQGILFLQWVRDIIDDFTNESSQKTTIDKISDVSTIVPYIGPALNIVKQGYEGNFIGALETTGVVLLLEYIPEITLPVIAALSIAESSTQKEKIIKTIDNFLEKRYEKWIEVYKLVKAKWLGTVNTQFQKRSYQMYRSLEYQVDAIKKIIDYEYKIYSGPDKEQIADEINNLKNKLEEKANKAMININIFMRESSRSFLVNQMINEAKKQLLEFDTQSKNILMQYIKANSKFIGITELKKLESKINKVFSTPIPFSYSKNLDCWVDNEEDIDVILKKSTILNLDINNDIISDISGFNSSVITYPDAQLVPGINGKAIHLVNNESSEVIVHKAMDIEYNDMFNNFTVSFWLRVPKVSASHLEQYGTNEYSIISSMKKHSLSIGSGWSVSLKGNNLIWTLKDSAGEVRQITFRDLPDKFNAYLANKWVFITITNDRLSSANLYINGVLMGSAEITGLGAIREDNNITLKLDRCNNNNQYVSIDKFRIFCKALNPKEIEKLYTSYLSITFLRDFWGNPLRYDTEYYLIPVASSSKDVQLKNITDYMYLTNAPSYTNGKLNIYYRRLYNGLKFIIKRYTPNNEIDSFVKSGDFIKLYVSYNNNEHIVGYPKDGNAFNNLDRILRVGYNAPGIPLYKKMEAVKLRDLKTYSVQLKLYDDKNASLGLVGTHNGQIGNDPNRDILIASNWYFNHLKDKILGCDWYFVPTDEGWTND

B1: Mab 1A2 (antibody, V domains shown)
VH: not shown
VL: DIELTQSPDFQSVTPKEKVTITCRASQSIGSSLHWYQQKPDQSPKLLIKYASQSFSGVPSRFSGSGSGTDFTLTINSLEAEDAATYYCHQSSSLPRTFGQGTKVEIKR
Regarding B1, the binding result is “no binding”.

B2: Mab 1F10/7C5 (antibody, V domains shown)
VH: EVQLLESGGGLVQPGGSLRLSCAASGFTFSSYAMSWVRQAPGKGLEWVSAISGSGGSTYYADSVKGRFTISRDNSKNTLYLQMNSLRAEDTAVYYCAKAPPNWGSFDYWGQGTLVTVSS
VL: DIELTQSPLSLPVTLGQPASISCRSSQSLVYSDGNTYLNWFQQRPGQSPRRLIYKVSNWDSGVPDRFSGSGSGTDFTLKISRVEAEDVGVYYCMQGTHWPRTFGQGTKVEIKR
notes: also called Mab 7C5
Consider B2, for which the binding result is on record as “no binding”.
